Source: US20230330254A1 (Regeneron, published 2023)
Where two headings read alike, the source gives them in different places.

B1: REGN9267 (antibody, human IgG4 S228P, kappa)
heavy: not shown
light: EIVLTQSPGTLSLSPGERDTLSCRASQSIAGRYVAWYQQKPGQAPRLLIYGASSRATGIPDRFSGSGSGTDFTLTISRLEPEDFAVYYCQQYGSSPWTFGQGTKVEIKRTVAAPSVFIFPPSDEQLKSGTASVVCLLNNFYPREAKVQWKVDNALQSGNSQESVTEQDSKDSTYSLSSTLTLSKADYEKHKVYACEVTHQGLSSPVTKSFNRGEC
notes: IgG4; Q-tag on heavy chain N-terminus; also called mAb 5; REGN9267 unconjugated Ab
B2: REGN8052 (antibody, V domains shown)
VH: QVQLVESGGGVVQPARSLRLSCAASGFAFSRSAMHWVRQAPGKGLEWVAVISYDGSNKYYTDSVKGRFTISRDNSKNTLYLQMNTLRAEDTALYYCAKMYTTMDSFDYWGQGTLVTVSS
VL: DIQLTQSPSFLSASVGDRVTITCWASQGISSYLAWYQQKPGKAPKLLIYAASTLQSGVPSRFSGSGSGTEFTLTISSLQPEDFALYYCQQLNSYPRTFGQGTKVEIK
notes: parental antibody without Q-tag; also called parent of REGN8072
B3: REGN8072 (antibody, human IgG4 S228P, kappa, V domains shown)
VH: QVQLVESGGGVVQPARSLRLSCAASGFAFSRSAMHWVRQAPGKGLEWVAVISYDGSNKYYTDSVKGRFTISRDNSKNTLYLQMNTLRAEDTALYYCAKMYTTMDSFDYWGQGTLVTVSS
VL: DIQLTQSPSFLSASVGDRVTITCWASQGISSYLAWYQQKPGKAPKLLIYAASTLQSGVPSRFSGSGSGTEFTLTISSLQPEDFALYYCQQLNSYPRTFGQGTKVEIKR
notes: IgG4; Q-tag on light chain N-terminus; also called mAb 4; REGN8072 unconjugated Ab
B4: REGN7988-M3190 (antibody, human IgG4 S228P, kappa, V domains shown)
VH: QVQLVESGGGVVQPGRSLRLSCAASGFTFSGYGIHWVRQAPGKGLVWVAVIWYDGSFKYYADSVKGRFTISRDNSKNTLYLQMNSLRAEDTAVYYCARGDSSSSGRYYYYGMDVWGQGTTVTVSS
VL: DIQMTQSPSSLSASVGDRVTITCRASQGIRNDLGWYQQKPGTAPKRLIFAASSLQSGVPSRFSGSGSGTEFTLTISSLQPEDFATYYCLQHNNYPPTFGGGTKVEIKR
modifications: linker-payload M3190 (LP11) on Gln 3 of the N-terminal Q-tag LLQGSG
B5: H1M30345N (antibody, V domains shown)
VH: EVQLVESGGGLVKPGGSLRLSCAASGFIFSRYSMNWVRQAPGKGLEWVSSMSSNSKNTYYADSVKGRFTISRDNAKNSLFLQMNTLRAEDTAVYYCARDGYTLRAFDIWGQGTMVTVSS
VL: EIVLTQSPGTLSLSPGERDTLSCRASQSIAGRYVAWYQQKPGQAPRLLIYGASSRATGIPDRFSGSGSGTDFTLTISRLEPEDFAVYYCQQYGSSPWTFGQGTKVEIK
B6: H4H30452P (antibody, V domains shown)
VH: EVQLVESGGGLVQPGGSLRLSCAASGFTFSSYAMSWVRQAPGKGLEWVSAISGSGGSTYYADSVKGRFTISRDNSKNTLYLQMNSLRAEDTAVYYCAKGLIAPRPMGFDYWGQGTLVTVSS
VL: DIQMTQSPSSVSASVGDRVTITCRASQGINSWLAWYQQKPGKAPKLLIYAASSLQSGVPSRFSGSGSGTDFTLTISSLQPEDFATYYCHQADSFPYTFGQGTKLEIK
notes: parental antibody without Q-tag; also called parent of REGN7990
B7: REGN8051 (antibody, V domains shown)
VH: QVQLVESGGGVGQPGRSLRLSCAASGFTFSRNAMHWVRQAPGKGLEWVAVISYDGSNKHYADSVKGRFTISRDNSKNTLYLEMNSLRVEDTAVYYCAKGGIPFDYWGQGTLVTVSS
VL: DIVMTQSPLSSPVTLGQPASISCRSSQSLVHFDGNTYLSWLHQRPGQPPRLLIYKISNRFSGVPDRFSGSGAGTDFTLKISRVEPEDVGVYYCMHATQFPYTFGQGTKLEIK
notes: parental antibody without Q-tag; also called parent of REGN8070
B8: REGN8070 (antibody, human IgG4 S228P, kappa, V domains shown)
VH: QVQLVESGGGVGQPGRSLRLSCAASGFTFSRNAMHWVRQAPGKGLEWVAVISYDGSNKHYADSVKGRFTISRDNSKNTLYLEMNSLRVEDTAVYYCAKGGIPFDYWGQGTLVTVSS
VL: DIVMTQSPLSSPVTLGQPASISCRSSQSLVHFDGNTYLSWLHQRPGQPPRLLIYKISNRFSGVPDRFSGSGAGTDFTLKISRVEPEDVGVYYCMHATQFPYTFGQGTKLEIKR
notes: IgG4; Q-tag on light chain N-terminus; also called mAb 16; REGN8070 unconjugated Ab
B9: REGN9278-M3190 (antibody, human IgG4 S228P, kappa, V domains shown)
VH: QVQLQQWGAGLLKPSETLSLTCAVYGGSFSGYYWSWIRQPPGKGLEWIGEINHAGSTNYNPSLKSRITISVDTSKNQFSLKLSSVTAADTAVYYCARGWYYGSGSYHRNWFDPWGQGTLVTVSS
VL: EIVLTQSPGTLSLSPGERATLSCRASQSVYYSYLAWYQQKPGQAPRLLIYGASNRATGIPDRFSGSGSGTDFTLTISRLEPEDFAVYYCQQYGNSPWTFGQGTKVEIKR
modifications: linker-payload M3190 (LP11) on Gln 3 of the N-terminal Q-tag LLQGSG
notes: antibody-tethered drug conjugate; also called REGN9278 ATDC
B10: REGN9278 (antibody, human IgG4 S228P, kappa, V domains shown)
VH: QVQLQQWGAGLLKPSETLSLTCAVYGGSFSGYYWSWIRQPPGKGLEWIGEINHAGSTNYNPSLKSRITISVDTSKNQFSLKLSSVTAADTAVYYCARGWYYGSGSYHRNWFDPWGQGTLVTVSS
VL: EIVLTQSPGTLSLSPGERATLSCRASQSVYYSYLAWYQQKPGQAPRLLIYGASNRATGIPDRFSGSGSGTDFTLTISRLEPEDFAVYYCQQYGNSPWTFGQGTKVEIKR
notes: IgG4; Q-tag on light chain N-terminus; also called mAb 19; REGN9278 unconjugated Ab
B11: H2aM30341N (antibody, V domains shown)
VH: QVQLQQWGAGLLKPSETLSLTCAVYGGSFSGYYWSWIRQPPGKGLEWIGEINHAGSTNYNPSLKSRITISVDTSKNQFSLKLSSVTAADTAVYYCARGWYYGSGSYHRNWFDPWGQGTLVTVSS
VL: EIVLTQSPGTLSLSPGERATLSCRASQSVYYSYLAWYQQKPGQAPRLLIYGASNRATGIPDRFSGSGSGTDFTLTISRLEPEDFAVYYCQQYGNSPWTFGQGTKVEIK
notes: parent of H4H30341N (REGN9278 without Q-tag); also called parent of REGN9278
B12: COMP Anti-GLP1R mAb1 conjugated to LP4 (antibody, human IgG4 S228P, kappa, V domains shown)
VH: QVTLKESGPGILQPSQTLSLTCSFSGFSLSTSGTGVGWIRQPSGKGLEWLSHIWWDDVKRYNPALKSRLTISRDTSYSQVFLRIASVDTADTATYYCARILDGTGPMDYWGQGTSVTVSS
VL: QIVLTQSPAIMSASPGEKVTMTCSASSRVTYMHWYQQRSGTSPKRWIYDTSKLASGVPARFSGSGSGTSYSLTISSMEAEDAATYYCQQWGNNPQYTFGGGTRLEIKR
modifications: azido-PEG3-amine on the Gln of the N-terminal Q-tag LLQGSG, clicked to LP4 (DIBAC-suc-PEG24-P9)
B13: COMP Anti-GLP1R mAb1 conjugated to LP1 (antibody, human IgG4 S228P, kappa, V domains shown)
VH: QVTLKESGPGILQPSQTLSLTCSFSGFSLSTSGTGVGWIRQPSGKGLEWLSHIWWDDVKRYNPALKSRLTISRDTSYSQVFLRIASVDTADTATYYCARILDGTGPMDYWGQGTSVTVSS
VL: QIVLTQSPAIMSASPGEKVTMTCSASSRVTYMHWYQQRSGTSPKRWIYDTSKLASGVPARFSGSGSGTSYSLTISSMEAEDAATYYCQQWGNNPQYTFGGGTRLEIKR
modifications: azido-PEG3-amine on the Gln of the N-terminal Q-tag LLQGSG, clicked to LP1 (DIBAC-suc-PEG4-P9)
B14: COMP Anti-GLP1R mAb1 conjugated to LP3 (antibody, human IgG4 S228P, kappa, V domains shown)
VH: QVTLKESGPGILQPSQTLSLTCSFSGFSLSTSGTGVGWIRQPSGKGLEWLSHIWWDDVKRYNPALKSRLTISRDTSYSQVFLRIASVDTADTATYYCARILDGTGPMDYWGQGTSVTVSS
VL: QIVLTQSPAIMSASPGEKVTMTCSASSRVTYMHWYQQRSGTSPKRWIYDTSKLASGVPARFSGSGSGTSYSLTISSMEAEDAATYYCQQWGNNPQYTFGGGTRLEIKR
modifications: azido-PEG3-amine on the Gln of the N-terminal Q-tag LLQGSG, clicked to LP3 (DIBAC-suc-PEG12-P9)
B15: H4H30484P2 (antibody, V domains shown)
VH: EVQLVESGGGLVQPGGSLKLSCAASGFTFSGSAMHWVRQASGKGLEWVGRITSKANSYATAYDASVKGRFTISRDDSKNTAYLQMNSLKTEDTAVYYCTRQRFLEFLFLDYWGQGTLVTVSS
VL: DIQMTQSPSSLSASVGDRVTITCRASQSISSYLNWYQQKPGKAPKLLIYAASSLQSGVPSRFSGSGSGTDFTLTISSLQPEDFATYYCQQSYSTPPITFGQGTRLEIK
notes: parental antibody without Q-tag; also called parent of REGN5619

What was measured:
[1] = target: T1, full-length human GLP1R on HEK293/CRE-Luc/hGLP1R cells (human, UniProt P43220 24-463); test: flow cytometry, hGLP1R cells
T1 construct: whole, on cells

[2] = target: T2, full-length cynomolgus GLP1R on HEK293/CRE-Luc/mfGLP1R cells (cynomolgus, UniProt F8V479 24-463); test: flow cytometry, mfGLP1R cells
T2 construct: whole, on cells

[3] = target: T3, N-terminal ectodomain of human GLP1R expressed with a myc-myc hexahistidine tag (human, UniProt P43220 24-145, limits assumed); test: SPR, captured via anti-hFc, 25 C
T3 construct: extracellular domain; also called hGLP1R-MMH; hGLP1R.mmh
T3 sequence (P43220 24-145 limits assumed): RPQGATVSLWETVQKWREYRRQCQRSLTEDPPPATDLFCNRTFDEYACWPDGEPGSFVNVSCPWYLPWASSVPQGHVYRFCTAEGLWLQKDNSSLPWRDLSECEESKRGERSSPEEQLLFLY

[4] = target: T1, full-length human GLP1R on …; test: cell-based or functional assay
[5] = target: T3, N-terminal ectodomain of human GLP1R …; test: SPR, captured via anti-hFc, 25 C; remark: listed apart in the source
[6] = target: T1, full-length human GLP1R on …; test: cell-based or functional assay; remark: listed apart in the source

Binder	EC50 [1] [nM]	EC50 [2] [nM]	90 nM hGLP1R.mmh Bound (RU) [3] [RU]	Kd [3] [nM]	t1/2 [3] [min]	Flow S/N [1] [fold]	Flow S/N [2] [fold]	other results
B1	0.944	0.668						
B2	0.705	2.13	98.7	5.49	9.6			
B3	1.42							
B4								CRE-luc EC50 [4]: 0.107 nM; CRE-luc Relative Potency (% M2361 EC50) [4]: 15.1%; CRE-luc Relative Signal:Noise (% M2361) [4]: 140%; CRE-luc S/N [4]: 90.1 fold
B5	1.64	3.54	61.7	0.16	102			
B6	1.68		88.9	5.4	9.8	115		koff [3]: 0.00118 s⁻¹; kon [3]: 218000 M⁻¹ s⁻¹
B7	7.39	4.12	73.7	3.41	54.7	560	494	koff [3]: 0.000211 s⁻¹; kon [3]: 61900 M⁻¹ s⁻¹
B8	3.44	2.05				322	246	
B9								CRE-luc EC50 [4]: 0.376 nM; CRE-luc Relative Potency (% M2361 EC50) [4]: 4.3%; CRE-luc Relative Signal:Noise (% M2361) [4]: 115%; CRE-luc S/N [4]: 73.8 fold; 90 nM hGLP1R.mmh Bound (RU) [5]: 55.7 RU; Kd [5]: 1.1 nM; koff [5]: 0.000127 s⁻¹; kon [5]: 116000 M⁻¹ s⁻¹; t1/2 [5]: 91 min
B10	4.21	2.49				436	548	
B11	2.75	2.1	48.4	0.346	149	595	646	koff [3]: 7.74e-05 s⁻¹; kon [3]: 224000 M⁻¹ s⁻¹
B12								CRE-luc EC50 [6]: 0.0629 nM; CRE-luc Relative Potency (% P8 EC50) [6]: 55.3%; CRE-luc Relative Signal:Noise (% P8) [6]: 87.4%; CRE-luc S/N [6]: 284 fold
B13								CRE-luc EC50 [6]: 0.0282 nM; CRE-luc Relative Potency (% P8 EC50) [6]: 96.7%; CRE-luc Relative Signal:Noise (% P8) [6]: 90.3%; CRE-luc S/N [6]: 213 fold
B14								CRE-luc EC50 [6]: 0.044 nM; CRE-luc Relative Potency (% P8 EC50) [6]: 62.1%; CRE-luc Relative Signal:Noise (% P8) [6]: 115%; CRE-luc S/N [6]: 272 fold
B15	1.98	0.963	26	181	0.3	208	284	koff [3]: 0.039 s⁻¹; kon [3]: 215000 M⁻¹ s⁻¹
